Consider three molecules from patent US20250270584A1 (University of California, published 2025).

The target of assay [1] is T1, CaM7 (calmodulin 7) (Arabidopsis thaliana, UniProt P59220 1-149).
T1 construct: also called AT3G43810; pBudCE4.1-EF-1α-CaM7
Briefly: IP-MS, anti-Flag IP of GLR3.3-3Flag from leaves of transgenic plants; co-enrichment, may be indirect.

For assay [2], the target named is T2, 3Flag-CaM7 (Arabidopsis thaliana, UniProt P59220 1-149).
T2 construct: also called p35S::Flag-CaM7
Briefly: Co-IP with anti-GFP agarose from transgenic plants expressing GLR3.3-EGFP and 3Flag-CaM7.

Assay [3] has as its target T3, GST-CaM7 (Arabidopsis thaliana, UniProt P59220 1-149).
T3 construct: also called pGEX-CaM7
Briefly: pull-down with CTD deletion variants.

B1: GLR3.3-3Flag (receptor)
chain: EKPKVVKIGSIFSFDSVIGKVAKIAIDEAVKDVNSNPDILSGTKFSVSMQNSNCSGFMGMVEALRFMEKDIVGIIGPQCSVVAHMISHMANELRVPLLSFAVTDPVMSPLQFPYFIRTTQSDLYQMDAIASIVDFYGWKEVIAVFVDDDFGRNGVAALNDKLASRRLRITYKAGLHPDTAVNKNEIMNMLIKIMLLQPRIVVIHVYSELGFAVFKEAKYLGMMGNGYVWIATDWLSTNLDSSSPLPAERLETIQGVLVLRPHTPDSDFKREFFKRWRKMSGASLALNTYGLYAYDSVMLLARGLDKFFKDGGNISFSNHSMLNTLGKSGNLNLEAMTVFDGGEALLKDILGTRMVGLTGQLQFTPDRSRTRPAYDIINVAGTGVRQIGYWSNHSGLSTVLPELLYTKEKPNMSTSPKLKHVIWPGETFTKPRGWVFSNNGKELKIGVPLRVSYKEFVSQIRGTENMFKGFCIDVFTAAVNLLPYAVPVKFIPYGNGKENPSYTHMVEMITTGNFDGVVGDVAIVTNRTKIVDFTQPYAASGLVVVAPFKKLNSGAWAFLRPFNRLMWAVTGCCFLFVGIVVWILEHRTNDEFRGPPKRQCVTILWFSFSTMFFAHRENTVSTLGRLVLIIWLFVVLIINSSYTASLTSILTVQQLSSPIKGIESLRERDDPIGYQVGSFAESYLRNELNISESRLVPLGTPEAYAKALKDGPSKGGVAAIVDERPYVELFLSSNCAYRIVGQEFTKSGWGFAFPRDSPLAIDLSTAILELAENGDLQRIHDKWLMKNACTLENAELESDRLHLKSFWGLFLICGVACLLALFLYFVQIIRQLYKKPTDDAIARDQQQNHDSSSMRSTRLQRFLSLMDEKEESKHESKKRKIDGSMNDTSGSTRSRGFDRERSFNSVNPLD
notes: Bait of the IP-MS, expressed in the glr3.3/glr3.6 mutant background; also called p35S::GLR3.3-3Flag; not shown: C-terminal 3Flag tag of vector pCambia1300-3Flag
For the molecule B1, the binding result in assay [1] is “binds”.

B2: GLR3.3-EGFP (receptor)
chain: B1 chain
notes: Used in the Co-IP with anti-GFP magnetic agarose; also called pGLR3.3::GLR3.3-EGFP; not shown: EGFP fusion partner
As to B2, in assay [2], the binding result is “binds”.

B3: MBP-CD2 (other, not shown: large carriers)
chain: LYFVQIIRQLYKKPTDDAIARMDEKEESKHESKKRKIDGSMNDTSGSTRSRGFDRERSFNSVNPLD
notes: domain: CTD
Consider B3, for which, in assay [3], the binding result is recorded as “no binding”.
